In patent US20190144556A1 (published 2019):

Columns and labels:
[1] = molecular target: T1, peptide fragment defined by residues 130-149 of SEQ ID NO: 7 within human TNFR2 (KQEGCRLCAPLRKCRPGFGV) (human); assay: peptide binding; assay not given
T1 peptide: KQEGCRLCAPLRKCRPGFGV

[2] = molecular target: T2, linear peptide containing amino acids 128-155 of SEQ ID NO: 7 within human TNFR2 (human); assay: ELISA, linear peptide coated at 1 µg/well, antibody 0.1 µg/well
T2 construct: Linear peptide purchased from GenScript and coated on the plate
T2 peptide: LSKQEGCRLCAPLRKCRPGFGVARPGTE
Experimental: (§1) ELISA was also used to determine linear epitopes present on the extracellular surface of TNFR2. Linear peptides corresponding to various regions within the TNFR2 primary sequence were purchased from GenScript (Piscataway, N.J.), diluted in coating buffer and placed on Immulon 4HBX Flat Bottom Microtiter Plates (Thermo Scientific) at a concentration of 1 μg/well. Primary TNFR2 antagonistic antibodies (0.1 μg/well) were incubated with substrates. Secondary antibodies against rodent IgG were used to detect the primary antibodies. Absorbance was measured using the SPECTRAMAX® 190 Absorbance Plate Reader and analyzed with SoftMax Pro 6.3 (Molecular Devices).

[3] = molecular target: T3, linear peptide containing amino acids 112-139 of SEQ ID NO: 7 within human TNFR2 (human); assay: as above
T3 construct: Linear peptide purchased from GenScript and coated on the plate
T3 peptide: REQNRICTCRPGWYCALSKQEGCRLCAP
Experimental: as §1

[4] = molecular target: T4, recombinant human TNFR2 (human, UniProt P20333 23-257, limits assumed); assay: SPR (BIACORE 3000), biotinylated antibody captured on streptavidin, recombinant human TNFR2 injected
T4 construct: also called tumor necrosis factor receptor 2; full-length target protein
T4 sequence: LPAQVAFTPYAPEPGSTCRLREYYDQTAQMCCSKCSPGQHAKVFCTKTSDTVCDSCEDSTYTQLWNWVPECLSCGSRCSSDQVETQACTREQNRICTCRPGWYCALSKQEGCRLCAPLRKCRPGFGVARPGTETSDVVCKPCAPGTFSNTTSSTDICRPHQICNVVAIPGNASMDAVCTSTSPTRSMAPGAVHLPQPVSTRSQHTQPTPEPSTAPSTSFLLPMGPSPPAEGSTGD
Experimental: The affinities of antagonistic TNFR2 antibodies for recombinant human TNFR2 were measured using BIACORE™ Analysis Services (Precision Antibody). Briefly, the antibody was biotinylated at a 5:1 stoichiometric ratio using biotinyl-LC-LC-[…] (Thermo-Fisher) in PBS. Excess biotinylation reagent was removed by centrifugation chromatography and the biotinylated antibody was captured on 3000 RU of streptavidin surface to a level of 100 RU. […] Analysis of the kinetics of antigen binding was performed at a flow of 60 μL/min with 2 min injections. Antibodies were injected at a concentration of 1 mg/ml to the final capture of 100 RU. The instrument used was BIACORE™ 3000 with the BioCap chip (GE Healthcare). Double reference method was used for analysis. Reference channel contained the identical level of streptavidin.

fold greater affinity than for the peptide fragment defined by residues 48-67 of SEQ ID NO: 7 (…, SEQ ID NO: 18) [1]: 40 fold
binding result [2]: binds
binding result [3]: binds
Kd [4]: ~0.0444 nM
koff [4]: 0.000221 s⁻¹
kon [4]: 4.98e+06 M⁻¹ s⁻¹
B1: antagonistic TNFR2 antibody TNFRAB1 (antibody, V domains shown)
VH: EVQLQESGGGLVKPGGSLKLSCAASGFTFSSYVMSWVRQTPEKRLEWVATISSGGSYTYYPDSVKGRFTISRDNAKNTLYLQMSSLRSEDTAMYYCARQRVDGYSSYWYFDVWGAGTAVTVSS
VL: DIVLTQSPAIMSASPGEKVTITCSASSSVYYMYWFQQKPGTSPKLWIYSTSNLASGVPVRFSGSGSGTSYSLTISRMEAEDAATYYCQQRRNYPYTFGGGTKLEIKR
notes: Murine monoclonal antibody, full-length IgG; For SPR the antibody was biotinylated and captured on streptavidin; also called TNFR2 antagonist 1
